Experiment [1] addresses T1, APP-TAP-AICD (human, UniProt P05067 18-695). Nature of the experiment: streptavidin purification of APP-TAP-AICD from brain homogenate; LTQ-FT semiquantitative method, transgenic mouse 75 vs control mouse 72.
Experiment [2] deals with T1, APP-TAP-AICD. Nature of the experiment: streptavidin purification of APP-TAP-AICD from brain homogenate; iTRAQ 116/114, transgenic mouse 75 vs control mouse 72; MALDI-TOF/TOF.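 Further: relative protein abundance in the transgenic versus control pull-down, limited to proteins with high quality scores and above-average enrichment, without full normalization across the whole measurement.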
From the text: Shown are all proteins that have high quality scores and are enriched above average in the m75 sample. Purified bait protein is given underlined. Other already known interaction partners of AICD or putatively biologically relevant proteins are given in bold. As full normalization over the entire measurement was not possible through the GPS explorer software suite, this conservative estimate had to be taken for determining the enriched vs. the non-enriched proteins. […] Ranking is in order of abundance ratio.

Here are results for eight molecules from patent US20100169988A1 (published 2010).

B1: Gamma enolase (2-phospho-D-glycerate hydrolyase) (Neural enolase) (enzyme, mouse, UniProt P17183 2-434, looked up)
chain: SIEKIWAREILDSRGNPTVEVDLYTAKGLFRAAVPSGASTGIYEALELRDGDKQRYLGKGVLKAVDHINSRIAPALISSGISVVEQEKLDNLMLELDGTENKSKFGANAILGVSLAVCKAGAAERDLPLYRHIAQLAGNSDLILPVPAFNVINGGSHAGNKLAMQEFMILPVGAESFRDAMRLGAEVYHTLKGVIKDKYGKDATNVGDEGGFAPNILENSEALELVKEAIDKAGYTEKMVIGMDVAASEFYRDGKYDLDFKSPADPSRYITGDQLGALYQDFVRNYPVVSIEDPFDQDDWAAWSKFTANVGIQIVGDDLTVTNPKRIERAVEEKACNCLLLKVNQIGSVTEAIQACKLAQENGWGVMVSHRSGETEDTFIADLVVGLCTGQIKTGAPCRSERLAKYNQLMRIEEELGDEARFAGHNFRNPSVL
notes: also called neuron-specific enolase
B1: the “probability that this protein is enriched” value in experiment [1] was 1. Moreover, in experiment [2], the iTRAQ ratio came to 4.08.

B2: 14-3-3 protein gamma (other, mouse, UniProt P61982 1-247, looked up)
chain: MVDREQLVQKARLAEQAERYDDMAAAMKNVTELNEPLSNEERNLLSVAYKNVVGARRSSWRVISSIEQKTSADGNEKKIEMVRAYREKIEKELEAVCQDVLSLLDNYLIKNCSETQYESKVFYLKMKGDYYRYLAEVATGEKRATVVESSEKAYSEAHEISKEHMQPTHPIRLGLALNYSVFYYEIQNAPEQACHLAKTAFDDAIAELDTLNEDSYKDSTLIMQLLRDNLTLWTSDQQDDDGGEGNN
notes: also called 14-3-3 γ
For the molecule B2, the “probability that this protein is enriched” value in experiment [1] was determined as 0.83. Further, the iTRAQ ratio in experiment [2] was found to be 4.28.

B3: Fructose-bisphosphate aldolase A (Muscle-type aldolase) (Aldolase 1) (enzyme, mouse, UniProt P05064 2-364, looked up)
chain: PHPYPALTPEQKKELSDIAHRIVAPGKGILAADESTGSIAKRLQSIGTENTEENRRFYRQLLLTADDRVNPCIGGVILFHETLYQKADDGRPFPQVIKSKGGVVGIKVDKGVVPLAGTNGETTTQGLDGLSERCAQYKKDGADFAKWRCVLKIGEHTPSALAIMENANVLARYASICQQNGIVPIVEPEILPDGDHDLKRCQYVTEKVLAAVYKALSDHHVYLEGTLLKPNMVTPGHACTQKFSNEEIAMATVTALRRTVPPAVTGVTFLSGGQSEEEASINLNAINKCPLLKPWALTFSYGRALQASALKAWGGKKENLKAAQEEYIKRALANSLACQGKYTPSGQSGAAASESLFISNHAY
With B3, the “probability that this protein is enriched” value in experiment [1] was determined as 1. The iTRAQ ratio in experiment [2] was 4.61.

B4: Dynamin-1 (enzyme, mouse, UniProt P39053 1-867, looked up)
chain: MGNRGMEDLIPLVNRLQDAFSAIGQNADLDLPQIAVVGGQSAGKSSVLENFVGRDFLPRGSGIVTRRPLVLQLVNSTTEYAEFLHCKGKKFTDFEEVRLEIEAETDRVTGTNKGISPVPINLRVYSPHVLNLTLVDLPGMTKVPVGDQPPDIEFQIRDMLMQFVTKENCLILAVSPANSDLANSDALKIAKEVDPQGQRTIGVITKLDLMDEGTDARDVLENKLLPLRRGYIGVVNRSQKDIDGKKDITAALAAERKFFLSHPSYRHLADRMGTPYLQKVLNQQLTNHIRDTLPGLRNKLQSQLLSIEKEVDEYKNFRPDDPARKTKALLQMVQQFAVDFEKRIEGSGDQIDTYELSGGARINRIFHERFPFELVKMEFDEKELRREISYAIKNIHGIRTGLFTPDMAFETIVKKQVKKIREPCLKCVDMVISELISTVRQCTKKLQQYPRLREEMERIVTTHIREREGRTKEQVMLLIDIELAYMNTNHEDFIGFANAQQRSNQMNKKKTSGNQDEILVIRKGWLTINNIGIMKGGSKEYWFVLTAENLSWYKDDEEKEKKYMLSVDNLKLRDVEKGFMSSKHIFALFNTEQRNVYKDYRQLELACETQEEVDSWKASFLRAGVYPERVGDKEKASETEENGSDSFMHSMDPQLERQVETIRNLVDSYMAIVNKTVRDLMPKTIMHLMINNTKEFIFSELLANLYSCGDQNTLMEESAEQAQRRDEMLRMYHALKEALSIIGDINTTTVSTPMPPPVDDSWLQVQSVPAGRRSPTSSPTPQRRAPAVPPARPGSRGPAPGPPPAGSALGGAPPVPSRPGASPDPFGPPPQVPSRPNRAPPGVPSLGAWRLNSPQGKHENRAGKARL
notes: also called DYN1_MOUSE; Dynamin I
Take B4: in experiment [1], the “probability that this protein is enriched” value was 0.82. In experiment [2], the iTRAQ ratio is 4.57.

B5: Phosphatidylethanolamine-binding protein (PEBP) (other, mouse, UniProt P70296 2-187, looked up)
chain: AADISQWAGPLCLQEVDEPPQHALRVDYAGVTVDELGKVLTPTQVMNRPSSISWDGLDPGKLYTLVLTDPDAPSRKDPKFREWHHFLVVNMKGNDISSGTVLSDYVGSGPPSGTGLHRYVWLVYEQEQPLSCDEPILSNKSGDNRGKFKVETFRKKYNLGAPVAGTCYQAEWDDYVPKLYEQLSGK
notes: also called PEBP1_MOUSE
With B5, in experiment [1], the “probability that this protein is enriched” value was found to be 1. Moreover, the iTRAQ ratio in experiment [2] worked out at 4.87.

B6: 14-3-3 protein zeta/delta (Protein kinase C inhibitor protein-1) (KCIP-1) (SEZ-2) (other, mouse, UniProt P63101 1-245, looked up)
chain: MDKNELVQKAKLAEQAERYDDMAACMKSVTEQGAELSNEERNLLSVAYKNVVGARRSSWRVVSSIEQKTEGAEKKQQMAREYREKIETELRDICNDVLSLLEKFLIPNASQPESKVFYLKMKGDYYRYLAEVAAGDDKKGIVDQSQQAYQEAFEISKKEMQPTHPIRLGLALNFSVFYYEILNSPEKACSLAKTAFDEAIAELDTLSEESYKDSTLIMQLLRDNLTLWTSDTQGDEAEAGEGGEN
For B6, in experiment [1], the “probability that this protein is enriched” value was determined as 0.83. The iTRAQ ratio in experiment [2] was 4.51.

B7: Malate dehydrogenase; mitochondrial precursor (enzyme, mouse, UniProt P08249 25-338, looked up)
chain: AKVAVLGASGGIGQPLSLLLKNSPLVSRLTLYDIAHTPGVAADLSHIETRANVKGYLGPEQLPDCLKGCDVVVIPAGVPRKPGMTRDDLFNTNATIVATLTAACAQHCPEAMVCIIANPVNSTIPITAEVFKKHGVYNPNKIFGVTTLDIVRANTFVAELKGLDPARVNVPVIGGHAGKTIIPLISQCTPKVDFPQDQLATLTGRIQEAGTEVVKAKAGAGSATLSMAYAGARFVFSLVDAMNGKEGVVECSFVQSKETECTYFSTPLLLGKKGLEKNLGIGKITPFEEKMIAEAIPELKASIKKGEDFVKNMK
For the molecule B7, the “probability that this protein is enriched” value in experiment [1] was found to be 0.86. For the same molecule, the iTRAQ ratio in experiment [2] was found to be 4.71.

B8: Aconitate hydratase; mitochondrial precursor (Citrate hydro-lyase) (enzyme, mouse, UniProt Q99KI0 28-780, looked up)
chain: QRAKVAMSHFEPSEYIRYDLLEKNINIVRKRLNRPLTLSEKIVYGHLDDPANQEIERGKTYLRLRPDRVAMQDATAQMAMLQFISSGLPKVAVPSTIHCDHLIEAQVGGEKDLRRAKDINQEVYNFLATAGAKYGVGFWRPGSGIIHQIILENYAYPGVLLIGTDSHTPNGGGLGGICIGVGGADAVDVMAGIPWELKCPKVIGVKLTGSLSGWTSPKDVILKVAGILTVKGGTGAIVEYHGPGVDSISCTGMATICNMGAEIGATTSVFPYNHRMKKYLSKTGRTDIANLAEEFKDHLVPDPGCQYDQVIEINLNELKPHINGPFTPDLAHPVADVGTVAEKEGWPLDIRVGLIGSCTNSSYEDMGRSAAVAKQALAHGLKCKSQFTITPGSEQIRATIERDGYAQILRDVGGIVLANACGPCIGQWDRKDIKKGEKNTIVTSYNRNFTGRNDANPETHAFVTSPEIVTALAIAGTLKFNPETDFLTGKDGKKFKLEAPDADELPRSDFDPGQDTYQHPPKDSSGQRVDVSPTSQRLQLLEPFDKWDGKDLEDLQILIKVKGKCTTDHISAAGPWLKFRGHLDNISNNLLIGAINIENGKANSVRNAVTQEFGPVPDTARYYKKHGIRWVVIGDENYGEGSSREHAALEPRHLGGRAIITKSFARIHETNLKKQGLLPLTFADPSDYNKIHPVDKLTIQGLKDFAPGKPLKCVIKHPNGTQETILLNHTFNETQIEWFRAGSALNRMKELQQ
notes: also called Aconitase
Turning to B8, the “probability that this protein is enriched” value in experiment [1] turned out to be 1. The iTRAQ ratio in experiment [2] amounted to 4.53.
